The source of these data is US20150346200A1.

In the test the target is anti-human β-tryptase antibody. The experiment in a line: sandwich ELISA dose response: plate coated with anti-human β-tryptase antibody, β-tryptase calibrator titrated, detected with AP-conjugated anti-human β-tryptase, luminescence.

For orientation: EC50 means the midpoint of the concentration-response curve. A low value points to greater potency. Consider “human β-tryptase (from UniProt Q15661 31-275) (enzyme)”, for which the 50% effective concentration (EC50) was 0.065 µg/mL.
